Source: article PMC9040739, “Entamoeba histolytica EHD1 Is Involved in Mitosome-Endosome Contact” (mBio, 2022)

Substrate: Nc1ncnc2c1ncn2[C@@H]1O[C@H](COP(=O)(O)OP(=O)(O)OP(=O)(O)O)[C@@H](O)[C@H]1O
Test: coupled fluorescent ADP assay (ADP-hexokinase/G6PDH/diaphorase/resazurin)
Assay type: biochemical, Entamoeba histolytica
Conditions: MgCl2, pH 7.5, 37°C, 12.5-2,500 μM ATP

B1: His-EHD1 (Entamoeba histolytica HM-1:IMSS) (protein)
chain: MFGKKKQKPQMDTSYVSVIDGVKKIYDEKIKKLEADYKYDYLVSPLMRQADFEAKPMVLFLGQYSTGKTTFINYLLNYDYPGSHIGPEPTTDGFMAIMHGPNSTNIPGNTLCVQSDKPFTSLSKFGNEFMAKFNGSFCNLPLLEHLTFIDSPGVLSGEKQRIGRSYDFNEVVRWFAERADMIVLVFDAHKLDISDEFKGVIEAVKKHSEKMRLVLNKADSIDSQQLMRVYGALMWSLGKVMQTPECLRVYVSSFWDQPFKESLFTGLFEKERDDLMYDLHALPKQATVRKVNELCKRARLAKANAYITSYLREQMPTFGKDKKKAELLKDLNTVFNTVMKRYNLAAGDFPPIDVYKDRLQNCDFSKFPKLDMRVINAVDDALGTQIPLLLKKFPMEDDLSTHTNPFEVASNFEKCCITLDVSEDEMNSYQKEFDKLPKNEVGKVLGKDCFAPLMASGADKKDLQKIWSIADSGKEGALNAHQYILAKALVRTLLQSGGYPDNLPPVE
notes: full length (ORF primers start to stop), N-terminal His tag (pColdI), tag kept; E. coli BL21, Ni-NTA; native mass 58 kDa
Km: 94.91 ± 16.63 µM
